The conditions of the data set: Bos taurus; pH 8.5; Thermal; DSC; ascorbate 1 mM; whole UniProt chain shown.

B1: Adrenodoxin, mitochondrial wild type, P00257 (protein)
chain: MAARLLRVASAALGDTAGRWRLLARPRAGAGGLRGSRGPGLGGGAVATRTLSVSGRAQSSSEDKITVHFINRDGETLTTKGKIGDSLLDVVVQNNLDIDGFGACEGTLACSTCHLIFEQHIFEKLEAITDEENDMLDLAYGLTDRSRLGCQICLTKAMDNMTVRVPDAVSDARESIDMGMNSSKIE
In general, Tm refers to the temperature at the midpoint of the melting transition. With B1, the Tm came to 51.4 °C, the “heat capacity change of unfolding” value is 1.79 kcal/mol/K and the “unfolding enthalpy (calorimetric)” value worked out at 84.8 kcal/mol.

The record behind these values is FireProtDB (doi:10.1002/pro.5560050915).
